T1: human IL-2Rβ (human, UniProt P14784 27-240, limits assumed)
T1 construct: also called hIL-2Rβ; IL-2 receptor beta
T1 sequence (looked up): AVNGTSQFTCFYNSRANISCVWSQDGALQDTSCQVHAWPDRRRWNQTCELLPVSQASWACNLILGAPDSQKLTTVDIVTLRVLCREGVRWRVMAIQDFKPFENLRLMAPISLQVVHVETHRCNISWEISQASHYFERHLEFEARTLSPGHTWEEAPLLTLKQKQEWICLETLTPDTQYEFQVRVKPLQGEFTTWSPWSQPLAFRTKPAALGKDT


Experiments:
human IL-15Rα [1] = molecular target: T2, human IL-15Rα (human, UniProt Q13261 31-205, limits assumed); assay: SPR 37C, fusion captured by anti-human Fc
T2 construct: also called hIL-15Rα; IL-15 receptor alpha
Experimental: (§1) Anti-human Fc sensor chips were prepared at 25° C. with a running buffer of 10 mM HEPES, 150 mM NaCl, 0.05% (v/v) Tween-20, pH 7.4. All surfaces of a Biacore CM4 sensor chip were activated with a 1:1 (v/v) mixture of 400 mM EDC and 100 mM NHS for 7 minutes, at a flow rate of 10 μL/min. An anti-human Fc reagent (Goat anti-human IgG Fc-γ specific, SouthernBiotech, Birmingham, Ala., Catalog #2014-01) was diluted to 50 μg/mL in 10 mM sodium acetate (pH 4.5) and injected on all flow cells for 7 minutes at 20 μL/min. All flow cells were blocked with 100 mM ethylenediamine in 200 mM Borate buffer pH 8.5 for 7 minutes at 10 μL/min.
(§2) All protein interaction experiments were performed at 37° C. using a running buffer of 10 mM HEPES, 150 mM NaCl, 0.05% (v/v) Tween-20, pH 7.4, 1 mg/mL BSA. Anti-PD-1-hIL-15 fusion proteins were captured at 10 μg/mL at a flow rate of 10 μL/min for 2 minutes. Different fusion proteins were captured in flow cells 2, 3 and 4. No protein was captured onto flow cell 1 which was used as a reference surface. […] After each analyte injection, dissociation was monitored for 5 minutes followed by regeneration of all flow cells with three 60-second injections of 75 mM phosphoric acid. […] For kinetic analysis, the double-referenced sensorgrams were fit globally to a simple 1:1 Langmuir with mass transport binding model using Biacore T200 Evaluation Software version 2.0. For steady-state affinity analysis, the double-referenced equilibrium binding responses were fit with a 1:1 Langmuir steady-state model using Biacore T200 Evaluation Software version 2.0.

human IL-2Rβ [2] = molecular target: T1, human IL-2Rβ; assay: SPR, steady state, fusion captured
Experimental: as §1, §2

human IL-2Rβ [3] = molecular target: T1, human IL-2Rβ; assay: SPR, fusion captured
Experimental: as §1, §2

human IL-2Rβ [4] = molecular target: T1, human IL-2Rβ; assay: SPR, kinetic fit
human IL-15Rα [5] = molecular target: T2, human IL-15Rα; assay: SPR, steady state

T2 sequence (Q13261 31-205 limits assumed): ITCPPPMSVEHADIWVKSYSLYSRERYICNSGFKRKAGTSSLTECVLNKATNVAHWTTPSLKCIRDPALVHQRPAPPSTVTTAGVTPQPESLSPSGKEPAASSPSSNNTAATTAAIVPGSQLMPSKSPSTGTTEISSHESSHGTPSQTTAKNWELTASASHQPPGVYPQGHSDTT

Row | Binder | binding result (human IL-15Rα [1]) | Kd (human IL-2Rβ [4]) [nM] | further results
1 | xmPD-1-hIL15Rasu-hIL15(E64Q/D30N N4K) (other, not restated for this mutant) heavy 1: HHHHHHHHGGGGSGSGGEVQLVESGGGLVKPGGSLELSCAASGFTFSSYWMSWVRQAPEKGLEWVAAISPSGGSTYYADSVKGRFTISRDNAKNTLFLQMTSLRSEDTAMYYCAKESWGAYYDLWGQGTTVTVSSASTKGPSVFPLAPCSRSTSESTAALGCLVKDYFPEPVTVSWNSGALTSGVHTFPAVLQSSGLYSLSSVVTVPSSNFGTQTYTCNVDHKPSNTKVDKTVERKCRVRCPRCPAPPVAGPSVFLFPPKPKDTLMISRTPEVTCVVVAVSHEDPEVQFNWYVDGVEVHNAKTKPREEQFNSTFRVVSVLTVVHQDWLNGKEYKCKVSNKGLPSSIEKTISKTKGQPREPQVYTLPPSREEMTKNQVSLTCLVKGFYPSDIAVEWESNGQPENNYKTTPPMLDSDGSFFLYSRLTVDKSRWQQGNVFSCSVMHEALHNHYTQKSLSLSPGK heavy 2: EVQLVESGGGLVKPGGSLELSCAASGFTFSSYWMSWVRQAPEKGLEWVAAISPSGGSTYYADSVKGRFTISRDNAKNTLFLQMTSLRSEDTAMYYCAKESWGAYYDLWGQGTTVTVSSASTKGPSVFPLAPCSRSTSESTAALGCLVKDYFPEPVTVSWNSGALTSGVHTFPAVLQSSGLYSLSSVVTVPSSNFGTQTYTCNVDHKPSNTKVDKTVERKCEVECPECPAPPVAGPSVFLFPPKPKDTLMISRTPEVTCVVVAVSHEDPEVQFNWYVDGVEVHNAKTKPREEQFNSTFRVVSVLTVVHQDWLNGKEYKCKVSNKGLPSSIEKTISKTKGQPREPQVYTLPPSREEMTKNQVSLTCEVKGFYPSDIAVEWESNGQPENNYKTTPPMLDSDGSFFLYSKLTVDKSRWQQGNVFSCSVMHEALHNHYTQKSLSLSPGSGGGGGTSATATPGAITCPPPMSVEHADIWVKSYSLYSRERYICNSGFKRKAGTSSLTECVLNKATNVAHWTTPSLKCIRDPALVHQRPAPPSGGSGGGGSGGGSGGGGSGGNWVKVISDLKKIEDLIQSMHIDATLYTESNVHPSCKVTAMKCFLLELQVISLESGDASIHDTVQNLIILANNSLSSNGNVTESGCKECEELEEKNIKEFLQSFVHIVQMFINT light: DIVMTQSPSSLSVSAGDKVTMSCRASQGISSWLAWYQQKPWQPPKLLIYKASTLESGVPDRFTGSGSGTDFTLTISSVQAEDLAVYYCQQSYSTPWTFGGGTKLEIKGTVAAPSVFIFPPSDEQLKSGTASVVCLLNNFYPREAKVQWKVDNALQSGNSQESVTEQDSKDSTYSLSSTLTLSKADYEKHKVYACEVTHQGLSSPVTKSFNRGEC | no binding (tested: 3000 nM) |  | Kd (human IL-2Rβ [2]): 767 nM
2 | xmPD-1-hIL15Rasu-hIL15(E64Q/D30N/N4K/M109A) (other, not restated for this mutant) heavy 1: HHHHHHHHGGGGSGSGGEVQLVESGGGLVKPGGSLELSCAASGFTFSSYWMSWVRQAPEKGLEWVAAISPSGGSTYYADSVKGRFTISRDNAKNTLFLQMTSLRSEDTAMYYCAKESWGAYYDLWGQGTTVTVSSASTKGPSVFPLAPCSRSTSESTAALGCLVKDYFPEPVTVSWNSGALTSGVHTFPAVLQSSGLYSLSSVVTVPSSNFGTQTYTCNVDHKPSNTKVDKTVERKCRVRCPRCPAPPVAGPSVFLFPPKPKDTLMISRTPEVTCVVVAVSHEDPEVQFNWYVDGVEVHNAKTKPREEQFNSTFRVVSVLTVVHQDWLNGKEYKCKVSNKGLPSSIEKTISKTKGQPREPQVYTLPPSREEMTKNQVSLTCLVKGFYPSDIAVEWESNGQPENNYKTTPPMLDSDGSFFLYSRLTVDKSRWQQGNVFSCSVMHEALHNHYTQKSLSLSPGK heavy 2: EVQLVESGGGLVKPGGSLELSCAASGFTFSSYWMSWVRQAPEKGLEWVAAISPSGGSTYYADSVKGRFTISRDNAKNTLFLQMTSLRSEDTAMYYCAKESWGAYYDLWGQGTTVTVSSASTKGPSVFPLAPCSRSTSESTAALGCLVKDYFPEPVTVSWNSGALTSGVHTFPAVLQSSGLYSLSSVVTVPSSNFGTQTYTCNVDHKPSNTKVDKTVERKCEVECPECPAPPVAGPSVFLFPPKPKDTLMISRTPEVTCVVVAVSHEDPEVQFNWYVDGVEVHNAKTKPREEQFNSTFRVVSVLTVVHQDWLNGKEYKCKVSNKGLPSSIEKTISKTKGQPREPQVYTLPPSREEMTKNQVSLTCEVKGFYPSDIAVEWESNGQPENNYKTTPPMLDSDGSFFLYSKLTVDKSRWQQGNVFSCSVMHEALHNHYTQKSLSLSPGSGGGGGTSATATPGAITCPPPMSVEHADIWVKSYSLYSRERYICNSGFKRKAGTSSLTECVLNKATNVAHWTTPSLKCIRDPALVHQRPAPPSGGSGGGGSGGGSGGGGSGGNWVKVISDLKKIEDLIQSMHIDATLYTESNVHPSCKVTAMKCFLLELQVISLESGDASIHDTVQNLIILANNSLSSNGNVTESGCKECEELEEKNIKEFLQSFVHIVQAFINT light: DIVMTQSPSSLSVSAGDKVTMSCRASQGISSWLAWYQQKPWQPPKLLIYKASTLESGVPDRFTGSGSGTDFTLTISSVQAEDLAVYYCQQSYSTPWTFGGGTKLEIKGTVAAPSVFIFPPSDEQLKSGTASVVCLLNNFYPREAKVQWKVDNALQSGNSQESVTEQDSKDSTYSLSSTLTLSKADYEKHKVYACEVTHQGLSSPVTKSFNRGEC | no binding (tested: 3000 nM) |  | Kd (human IL-2Rβ [3]): > 3000 nM
3 | xmPD-1-hIL15Rasu-hIL15(E64Q/D30N/M109A) (other, not restated for this mutant) heavy 1: HHHHHHHHGGGGSGSGGEVQLVESGGGLVKPGGSLELSCAASGFTFSSYWMSWVRQAPEKGLEWVAAISPSGGSTYYADSVKGRFTISRDNAKNTLFLQMTSLRSEDTAMYYCAKESWGAYYDLWGQGTTVTVSSASTKGPSVFPLAPCSRSTSESTAALGCLVKDYFPEPVTVSWNSGALTSGVHTFPAVLQSSGLYSLSSVVTVPSSNFGTQTYTCNVDHKPSNTKVDKTVERKCRVRCPRCPAPPVAGPSVFLFPPKPKDTLMISRTPEVTCVVVAVSHEDPEVQFNWYVDGVEVHNAKTKPREEQFNSTFRVVSVLTVVHQDWLNGKEYKCKVSNKGLPSSIEKTISKTKGQPREPQVYTLPPSREEMTKNQVSLTCLVKGFYPSDIAVEWESNGQPENNYKTTPPMLDSDGSFFLYSRLTVDKSRWQQGNVFSCSVMHEALHNHYTQKSLSLSPGK heavy 2: EVQLVESGGGLVKPGGSLELSCAASGFTFSSYWMSWVRQAPEKGLEWVAAISPSGGSTYYADSVKGRFTISRDNAKNTLFLQMTSLRSEDTAMYYCAKESWGAYYDLWGQGTTVTVSSASTKGPSVFPLAPCSRSTSESTAALGCLVKDYFPEPVTVSWNSGALTSGVHTFPAVLQSSGLYSLSSVVTVPSSNFGTQTYTCNVDHKPSNTKVDKTVERKCEVECPECPAPPVAGPSVFLFPPKPKDTLMISRTPEVTCVVVAVSHEDPEVQFNWYVDGVEVHNAKTKPREEQFNSTFRVVSVLTVVHQDWLNGKEYKCKVSNKGLPSSIEKTISKTKGQPREPQVYTLPPSREEMTKNQVSLTCEVKGFYPSDIAVEWESNGQPENNYKTTPPMLDSDGSFFLYSKLTVDKSRWQQGNVFSCSVMHEALHNHYTQKSLSLSPGSGGGGGTSATATPGAITCPPPMSVEHADIWVKSYSLYSRERYICNSGFKRKAGTSSLTECVLNKATNVAHWTTPSLKCIRDPALVHQRPAPPSGGSGGGGSGGGSGGGGSGGNWVNVISDLKKIEDLIQSMHIDATLYTESNVHPSCKVTAMKCFLLELQVISLESGDASIHDTVQNLIILANNSLSSNGNVTESGCKECEELEEKNIKEFLQSFVHIVQAFINT light: DIVMTQSPSSLSVSAGDKVTMSCRASQGISSWLAWYQQKPWQPPKLLIYKASTLESGVPDRFTGSGSGTDFTLTISSVQAEDLAVYYCQQSYSTPWTFGGGTKLEIKGTVAAPSVFIFPPSDEQLKSGTASVVCLLNNFYPREAKVQWKVDNALQSGNSQESVTEQDSKDSTYSLSSTLTLSKADYEKHKVYACEVTHQGLSSPVTKSFNRGEC | no binding (tested: 3000 nM) |  | Kd (human IL-2Rβ [2]): 315 nM
4 | hIL-15 V49R/D30G (ligand) NWVNVISDLKKIEDLIQSMHIDATLYTESGVHPSCKVTAMKCFLLELQRISLESGDASIHDTVENLIILANNSLSSNGNVTESGCKECEELEEKNIKEFLQSFVHIVQMFINTGGGGSGHHHHHHHHGGGLNDIFEAQKIEWHE |  | 513 | 
5 | hIL-15 V49R/N1R (ligand) RWVNVISDLKKIEDLIQSMHIDATLYTESDVHPSCKVTAMKCFLLELQRISLESGDASIHDTVENLIILANNSLSSNGNVTESGCKECEELEEKNIKEFLQSFVHIVQMFINTGGGGSGHHHHHHHHGGGLNDIFEAQKIEWHE |  | 479 | Kd (human IL-15Rα [5]): 243 nM
6 | hIL-15 V49R/N4Y (ligand) NWVYVISDLKKIEDLIQSMHIDATLYTESDVHPSCKVTAMKCFLLELQRISLESGDASIHDTVENLIILANNSLSSNGNVTESGCKECEELEEKNIKEFLQSFVHIVQMFINTGGGGSGHHHHHHHHGGGLNDIFEAQKIEWHE |  | 117 | 
7 | hIL-15 V49R/K11W (ligand) NWVNVISDLKWIEDLIQSMHIDATLYTESDVHPSCKVTAMKCFLLELQRISLESGDASIHDTVENLIILANNSLSSNGNVTESGCKECEELEEKNIKEFLQSFVHIVQMFINTGGGGSGHHHHHHHHGGGLNDIFEAQKIEWHE |  | 346 | Kd (human IL-15Rα [5]): 361 nM
8 | hIL-15 V49R/H32F (ligand) NWVNVISDLKKIEDLIQSMHIDATLYTESDVFPSCKVTAMKCFLLELQRISLESGDASIHDTVENLIILANNSLSSNGNVTESGCKECEELEEKNIKEFLQSFVHIVQMFINTGGGGSGHHHHHHHHGGGLNDIFEAQKIEWHE |  | 315 | 
